A short description of this data set: label from the status in PepcDB records.
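Note: failed if final PepcDB status was selected cloned or expressed and not failed if soluble or beyond.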

On to “QPSRFLLKVLAGANIGAEFHLDSGKTYIVGSDPQVADIVLSDMSISRQHAKIIIGNDNSVLIEDLGSKNGVIVEGRKIEHQSTLSANQVVALGTTLFLLVDYAAPS”, for which the protein production result is given as “not failed”.

Take “QQKLAANVFKNSQDGVLIYDADGKLTLMNPAFTDIFGYQMSELSNIPMLTLFDGHHFTTSTSLITESIQRFGQWHGEVLEKDKYGAELPLYVKASKIIDTEQYGQNSYIFIFTNLS”: the protein production entry is given as “failed”.

“QRISLEIMTLQPRCEDVETAEGVALTVTGVAQVKIMTEKELLAVACEQFLGKNVQDIKNVVLQTLEGHLRSILGTLTVEQIYQDRDQFAKLVREVAAPDVGRMGIEILSFTIKDVYDKVDYLSSLGKTQT”: the protein production result was “not failed”.

Turning to “QSAKEAIEAANADFVKAYNSKDAAGVASKYMDDAAAFPPDMARVDGRQNIQKLWQGAMDMGISELKLTTLDVQESGDFAFESGSFSLKAPGKDSKLVDAAGKYVVVWRKGQDGGWKLYRDIWNSDPAK”, the protein production entry was “not failed”.

On to “QSTGQVTLGVLTDMSSVYADSAGKGSVAAVQLAIEDVGGKALGQPVKLVSADYQMKTDVALSIAREWFDRDGVDAIFDVVNSGTALAINNLVKDKKKLAFITAAAADQIGGTECNGYGIGFLYNFTSIVKTVVQAQLAKGYKTWFLMLPDAAYGDLMNAAIRRELTAGGGQIVGSVRFPFETQDFSSYLLQAKASGAQLIVSTSGGAANINIMKQAREFGLPSKTQKVGGMIDILTDVKSAGLRVMQGQEYATSFYWNMDDRTRAFAKRFYAKMGKMPTNNQAGGYSAALQYLKAVNAIGSKDPQKVFAYLKTIKFDDAVTRHGTLRPGGRLVRDMYLVRAKKPEDQKGDWDYYDVVATIGPEQAFGPLSESRCAMDK”, for which the protein production entry is “not failed”.

In the case of “QSVHDIEKTLIRIGVVQWQMRAMNDLEDLLDQAEFFISSLANYKADFALFPEFFNAPLMGLQNDQNSVEAIRFLASFTEEIKNRFSQMAVTYNINIIAGSMPLIEDGKLYNVAYLLQRDGEINAQYKIHITPHEQKDWVIDGGDNVQVFETDAGKVGILICYDSEFPELGRMLAEQGAQIIFVPFWTDTKNGYQRVRICSQSRAIENECYVAIGGSVGNLPRVDNVDIQYAQSAVFSPSDIYFPHDATLTEASANTEMIIFADVDLTKLKQLNTEGSVTNLRHRRLDLYGAFTTPKE”, the protein production entry is on record as “failed”.

With “QTASGASYVLREIGADDTATAFAALSVLRSSLTDIGRFTEQINKIQRPQGYRLLGIFEECKHNAVAVCGFREACTLAGGRHIHIDDIVTLPQSRRKGYASRLLEEVRKIGAETGVTKIHLNVHVNHDRTDAHRLYFKNGFEICAYHFRCDPK”, the protein production result is on record as “failed”.

On to “QTDPKKPTTDEGTASSEVNATEEMSTLVNYIEPVKFKSFEAARKRNKCFEMSSFVETKAMEQLTKSPMEFVEYNKQQLSRIYPKGTRVDSSNYMPQLFWNVGCQLVALNFQTLDVAMQLNAGVFEYNGRSGYLLKPEFMRRPDKSFDPFTEVIVDGIVANALRVKVISGQFLSDRKVGIYVEVDMFGLPVDTRRKYRTRTSQGNSFNPVWDEEPFDFPKVVLPTLASLRIAAFEEGGKFVGHRILPVSAIRSGYHYVCLRNEANQPLCLPALLIYTEASDYIPDDHQDYAEALINPIKHVSLMDQRARQLAALIGESEAQAGQETCQDTQSQQLGSQPSSNPTPSPLD”, for which the protein production result was “failed”.

Take “RETLDNLSEAVAVFGSNGCAQLFNPPFARMWNLSAEALQSQPHIEAIEEWCRPLFDDDVFWQALRGAITGIDDRRHVLLKIERKDGSVLACKTMPLPDGATMLTFQDITDTENVERALRERNEALETADRIKIDFVHHVSYELRSPLTTIIGFA”: the protein production entry is listed as “failed”.

For “RFRVTPYHGNLLGDHERLAAFREAISSRARGLTYDLGAGSGILSFFASEYADRVIAIERDPKIAACAGENLSGLDNVSVVNEDALHYEFSAADTIICEMLDTALIDEEQVPVLRRALKFLRNDGTVIPQAVF”, the protein production result is recorded as “failed”.

Consider “RGIAVYVEHHNGNIHPVTYELIGKAREMASKIKQPVYCVFVGKDIKDKCSNLISYGVDEVFVYDEDEFKDFRIEPYSKAIENFIDKIKPTIVLVGGTTLGRSLAPRLAARFRTGLTADCTILDIQSNTDLDQIRPAFGGNIMAHINTPNNRPQFATVRYKIFSAPEKIENTTGKITLCKVEKKELKSKIKVLSVKEKNKEVG”, for which the protein production entry is on record as “failed”.

Consider “RGLALCREHYLDWFVKETERAIRRHRMLLPGERVLVAVSGGKDSLALWDVLSRLGYQAVGLHIELGIGEYSKRSLEVTQAFARERGLELLVVDLKEAYGFGVPELARLSGRVACSACGLSKRYIINQVAVEEGFRVVATGHNLDDEAAVLFGNLLNPQEETLSRQGPVLPEKPGLAARVKPFYRFSEREVLSYTLLRGIRYLHEEC”, for which the protein production entry is recorded as “failed”.

Take “RIVSTLNERLAGLTLHEIRDTYEERLDDLPDETGLIALVLDEASILFSEPDEGRLQFDGTQNILSQPEFQEPDDMRHLIETIEDEDRIVQVIENLFEANPDAVGQAVVRIGSETDQEEMDAYSIVLSPYQLGDTVGSLGVIGPKRMDYGRAVALVENMAAVVNRPADDETTD”: the protein production entry is reported as “failed”.

Regarding “RKEDHARLRALNGLLYKALTDLLCTPEVSQELYDLNVELSKVSLTPDFSACRAYWKTTLSAEQNAHMEAVLQRSAAHMRHLLMSQQTLRNVPPIVFVQDKGNAALAELDQLLAVAD”, the protein production result is reported as “not failed”.

In the case of “RKTEKVVNNGIPWFDDRGEIVNAHGACIVEENGRYYLFGEYKSDKSNAFPGFSCYSSDDLVNWKFERVVLPMQSSGILGPDRVGERVKVMKCPSTGEYVMYMHADDMNYKDPHIGYATCSTIAGEYKLHGPLLYEGKPIRRWDMGTYQDTDGTGYLLLHGGIVYRLSKDYRTAEEKVVSGVGGSHGESPAMFKKDGTYFFLFSNLTSWEKNDNFYFTAPSVKGPWTRQGLFAPEGSLTYNSQTTFVFPLKCGEDTIPMFMGDRWSYPHQASAATYVWMPMQVDGTKLSIPEYWPSWDVDKLKPVNPLRKGKTVDLKKITFSKEADWKVEEGRISSNVKGSTLSIPFTGSCVAVMGETNCHSGYARMNILDKKGEKIYSSLVDFYSKANDHATRFKTPQLAEGEYTLVIEVTGISPTWTDKTKRIYGSDDCFVTITDIVKL”, the protein production result is recorded as “not failed”.

For the sequence “RNRFKWGPASQQILYQAYDRQKNPSKEEREALVEECNRAECLQRGVSPSKAHGLGSNLVTEVRVYNWFANRRKEEAFRQKLAMDAYSSN”, the protein production entry is listed as “not failed”.

As for “RPKTGFQMWLEENRSNILSDNPDFSDEADIIKEGMIRFRVLSTEERKVWANKAKGETASEGTEAKKRK”, the protein production entry was “not failed”.

For the sequence “RQKLLADFGEFALSNDNLADILTEACRLVGNALGTQRANVLEIEPSKRSLFVRAGVGLDDGIVGKLRLPMREIASERFSPDGSPLDIIHDVHTEPQYDLAAFMEVAGVVALVNVPILLPGRTLYGLLQVESSEPREFSQDDVEFLRTYSTILGPVIDRLNKVRALRDAEERFRLIVEAAR”, the protein production entry was “failed”.

Consider “RQQSMAERHDYDQKEEKTDGGELVSSYMCSPETAAEEFEISKKLYAQLTGRSQSEKHDIIMYRIIQSFKPDEVSPEEAHKIGCELAMKFTGGQHQFVVATHTDKRHIHTHIEFNSTNLNCDAKFQNVKNSAFILRRMNDELCRAHGLSVIENPKKKARPQKEMAAAQYGVSHKKQLQQAIDRLLPECNHYEEFLAKMRAEGYEVVDGKNPGFRLPGWDRPTRVNRLG”, for which the protein production result is listed as “not failed”.

With “RRRAPLARLRQAIQRCEFFVCYQPIVSLSDGRCVGAEALVRWRQQDGTLILPDQFIPLAERSGLILPITDQVIAASMRELGPLLVADRSLHIAINVSVKDIESGRLLDVLALALQDTGLYRKQLWIEATERSFMDARAAREHIVRLREAGYAVVIDDFGTGYSNLQYLQQLPLDALKIDKSFIDTVGRDVTNTAVASHIIDIAKELGMRTIAEGVEREEQLVYLRARGVDMAQGWLFSSPLSVAEFVDYLSHNRSMHPDD”, the protein production entry was “failed”.

In the case of “RSPPSNLALASETPDSLQVSWTPPLGRVLHYWLTYAPASGLGPEKSVSVPGARSHVTLPDLQAATKYRVLVSAIYAAGRSEAVSATGQTACP”, the protein production entry is reported as “not failed”.

With “RTAVMIMNGNQLVGFFCLHVGQGPLSYGETEVNTILLRALSVDDRFKHQRVASDALAELPRYLASHYPMIQTILLAVNHANHVAQHLY”, the protein production entry is “failed”.

Consider “RTDVIVVGVLDWKKGNLSFVSIPRDLMIEGKKINAIYNTYGMEKLFQIIESLLGQKPDSYVIFNYEAFKILVDELGPIEVIPNEVMFYEDLSQNLVIDFKPGVPYKLNGEQLLAYIRYRKDSMGDLARIERQKDVLKKLLSKALS”, for which the protein production entry is given as “failed”.

For the sequence “RTEAGDAYYSKFANNTPLPALMVSRKKFGSSYVYDKSYKTWDVPIAEQMEQKAKINIFAVAEYTDTQKIKVTVKGKILEGNTLPKSMVQVYLLEDKLIAPQVDGNTTVENYEHNHVLRGAVNGIWGEEFVNLKDYLYTYAVEPLSGMSFVAENYSIVAFVYDVQTFEVYDVVHVKINPQSDGK”, the protein production result was “not failed”.

Consider “RTFAVAAVAALVLPLSACGSGGDGGSSTDASGKVEGDITFQTWNLRANFKDYFEGLIADFEKKYPDTHVKWVDQPGEGYADKISADAAGGTLPDVVNVSPDLVAPLAKAGLALDLDKAAGQYEKEYLEGAWASHRIPGMDGTYAFPWYLNTGPLFYNKSLFEKAGLDPEQPPRTYDEVFDAALKIADKTDGEVATLANVPTIEDFGRYGVPLMNKEGTAFAFNDAKGVQLLARYKELYDAKALDPQALTATPESSGKKFLTGAVAMNPGSALDLANFKKQAPNLYENIGITDQITSTGHVNMYVMGLMVNAQSQRKPAAVAFAHYVTDAAHQMSFAKQVAIFPSTAGSLDDPYFTKEDGTDETRVRVAAAKSLKTAVNYTPVLFSEQMKTELRNEVAKALQGKQSPKEALDNAVKACDRLLQ”, for which the protein production result was “failed”.

As for “RTKDQYYELRDFALGTSVRIVVSSQKINPRTIAEAILEDMKRITYKFSFTDERSVVKKINDHPNEWVEVDEETYSLIKAACAFAELTDGAFDPTVGRLLELWGFTGNYENLRVPSREEIEEALKHTGYKNVLFDDKNMRVMVKNGVKIDLGGIAKGYALDRARQIALSFDENATGFVEAGGDVRIIGPKFGKYPWVIGVKDPRGDDVIDYIYLKSGAVATSGDYERYFVVDGVRYHHILDPSTGYPARGVWSVTIIAEDATTADALSTAGFVMAGKDWRKVVLDFPNMGAHLLIVLEGGAIERSETFKLFERE”, the protein production result was “not failed”.

On to “RVLEFHPLGSGLAMTEFVVGSRLMGKTLSDLALCKVEGVQVLGFKRGPEIIKAPDMSTTLEIGDLIIVVGPQDKLANKLKSL”, for which the protein production result is “failed”.

For “RYSDAHLHYVDFFQESEGMPALIKAMDAAGVEQSMISGIPVAKKWHEDEPKRPRYYAGDDADAYWYSATDTYVAAALQQLPSDQRKRFHPFLSGFNPVDKNAVSHIERMLDLYPGLWQGIGEVFTRHDDLTALTSGDTPRANNEAMTRIYHLAAERDLPVLLHSNITSKRERNPLYLAEIEEPLRNHPHTRFIWAHAGSSMEIHRHQKQMDFLLPVLTRLLEDYPNLYVDLSWSVLQPYLLDEQGAPRKEWLALVEKYPERFMLGSDVVGRFGSLGEQMHGFKPFLDALPESVAHKVARENFLAVLPKAR”, the protein production entry is “failed”.

As to “SAELGLNEHHQNEVINYMRFARSKRGLRLKTVDSCFQDLKESRLVEDTFTIDEVSEVLNGLQAVVHSEVESELINTAYTNVLLLRQLFAQAEKWYLKLQTDISELENRELLEQVAEFEKAEITSSNKKPILDVTKPKLAPLNEGGTAELLNKEILRLQEENEKLKSRLKTIEIQATNALDEKSKLEKALQDLQLDQGNQKDFIKAQDLSNLENTVAALKSEFQKTLNDKTENQKSLEENLATAKHDLLRVQEQLHMAEKELEKKFQQTAAYRNMKEILTKKNDQIKDLRKRLAQYEPED”, the protein production result is reported as “not failed”.

For the origin of these results see a protein production outcome set (Wang et al. 2014).
